Measured values reported in US20100055104A1 (NEUTEC PHARMA, published 2010).
Ends that are not written are not given here.

Tests used:
[1] = target: T1, recombinant human hsp90α (human, UniProt P07900 1-732, limits assumed); assay: Biacore SPR; human hsp90α amine-coupled to CM-5 chip, Mycograb injected; 1:1 Langmuir fit
T1 construct: also called human hsp90a; human hsp 90 alpha

[2] = target: T2, biotinylated LKVIRK peptide (SEQ ID NO: 4) (also: biotinylated, site not given here); assay: Biacore SPR; biotinylated peptide captured on SA chip, Mycograb injected; 1:1 Langmuir fit
T2 construct: Captured non-covalently on a Sensor Chip SA; Any spacer between the biotin and the peptide is not described; also called immobilised peptide
T2 peptide: LKVIRK

[3] = target: T3, recombinant hsp90 from Candida albicans (Candida albicans, UniProt P46598 1-707); assay: Biacore SPR; Candida hsp90 amine-coupled to CM-5 chip, Mycograb injected; 1:1 Langmuir fit
T3 construct: also called Candida hsp90; Candida albicans hsp90
T3 sequence (P46598 whole entry): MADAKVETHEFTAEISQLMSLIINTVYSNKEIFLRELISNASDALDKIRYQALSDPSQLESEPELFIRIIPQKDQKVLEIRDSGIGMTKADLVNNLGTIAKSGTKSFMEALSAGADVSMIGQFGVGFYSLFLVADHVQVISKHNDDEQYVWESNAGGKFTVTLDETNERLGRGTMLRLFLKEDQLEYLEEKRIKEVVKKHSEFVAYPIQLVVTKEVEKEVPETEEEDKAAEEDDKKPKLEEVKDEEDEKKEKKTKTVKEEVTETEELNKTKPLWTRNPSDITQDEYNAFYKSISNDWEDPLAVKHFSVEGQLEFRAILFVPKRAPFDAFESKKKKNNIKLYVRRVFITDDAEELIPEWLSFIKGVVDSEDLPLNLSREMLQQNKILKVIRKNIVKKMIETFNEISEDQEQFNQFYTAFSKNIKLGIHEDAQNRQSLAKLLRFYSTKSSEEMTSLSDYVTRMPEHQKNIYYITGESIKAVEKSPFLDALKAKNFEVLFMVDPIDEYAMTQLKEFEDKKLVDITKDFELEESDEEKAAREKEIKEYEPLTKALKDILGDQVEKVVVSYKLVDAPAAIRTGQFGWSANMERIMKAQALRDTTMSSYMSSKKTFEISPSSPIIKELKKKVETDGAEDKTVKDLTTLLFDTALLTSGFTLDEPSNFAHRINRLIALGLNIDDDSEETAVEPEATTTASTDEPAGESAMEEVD

B1: Mycograb® (antibody component, SEQ ID NO: 1) (antibody)
chain: HMAEVQLVESGAEVKKPGESLRISCKGSGCIISSYWISWVRQMPGKGLEWMGKIDPGDSYINYSPSFQGHVTISADKSINTAYLQWNSLKASDTAMYYCARGGRDFGDSFDYWGQGTLVTVSSGGGGSGGGGSGGGGSDVVMTQSPSFLSAFVGDRITITCRASSGISRYLAWYQQAPGKAPKLLIYAASTLQTGVPSRFSGSGSGTEFTLTINSLQPEDFATYYCQHLNSYPLTFGGGTKVDIKRAA
notes: Formulated as described in WO-A-01/76627; also called Mycogab; Mycograbg
Binder B1 has a Kd [1] of 3270 nM, a koff [1] of 0.00321 s⁻¹ and a kon [1] of 981 M⁻¹ s⁻¹. The Kd [2] was 28.6 nM, the koff [2] was 0.000647 s⁻¹ and the kon [2] was 22600 M⁻¹ s⁻¹. For the same binder, the Kd [3] was 717 nM, the koff [3] was 0.000267 s⁻¹ and the kon [3] was 373 M⁻¹ s⁻¹.
